PMC3016346

Assays:
Assay in all cases: two-hybrid; Matchmaker Gal4 system 3 in AH109; beta-galactosidase solution assay with ONPG on lysed cells from liquid culture; activity as percent of p53-TAg (100%); mean of at least three experiments
[1] = biological target: SeMV MP NΔ49 deletion mutant, Gal4 DNA-binding domain fusion (pGBKT7 NΔ49) (Sesbania mosaic virus)
[2] = biological target: Sesbania mosaic virus movement protein, Gal4 DNA-binding domain fusion (pGBK T7 MP) (Sesbania mosaic virus)
[3] = biological target: SeMV MP CΔ38 deletion mutant, Gal4 DNA-binding domain fusion (pGBK T7) (Sesbania mosaic virus)

Substance	beta-galactosidase activity, percent of p53-TAg [1]	beta-galactosidase activity, percent of p53-TAg [2]	beta-galactosidase activity, percent of p53-TAg [3]
Sesbania mosaic virus 10-kDa protein (P10), Gal4 activation domain fusion (pGAD T7 P10) (natural protein)	14%	97.1%	–
Sesbania mosaic virus coat protein (CP), Gal4 activation domain fusion (pGAD T7 CP) (natural protein)	–	70%	–
Sesbania mosaic virus viral protein genome linked (VPg), Gal4 activation domain fusion (pGAD T7 VPg) (natural protein)	–	95.5%	83.1%
